The values that follow come from the supplement of paper PMC7877785.

± gives the uncertainty stated by the source.

A short description of this data set: self-splicing fitness, log relative to wild type (ln ratio); higher = more splicing; Tetrahymena group I intron in knt gene, E. coli kanamycin selection, DiMSum; sequences stand for … in CUCUCU…GGAGGGAAAAGUUAUCAGGCAUGCACCUGGUAGCUAGUCUUUAAACCAAUAGAUUGCAUCGGUUUAAAAGGCAAGACCGUCAAAUUGCGGGAAAGGGGUCAACAGCCGUUCAGUACCAAGUCUCAGGGGAAACUUUGAGAUGGCCUUGCAAAGGGUAUGGUAAUAAGCUGACGGACAUGGUCCUAACCACGCAGCCAAGUCCUAAGUCAACAGAUCUUCUGUUGAUAUGGAUGCAGUUCACAGACUAAAUGUCGGUCGGGGAAGAUGUAUUCUUCUCAUAAGAUAUAGUCGGACCUCUCCUUAAUGGGAGCUAGCGGAUGAAGUGAUGCAACACUGGAGCCGCUGGGAACUAAUUUGUAUGCGAAAGUAUAUUGAUUAGUUUUGGAGUACUCGUGGUCG
The essentials:
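A randomised library covering all eight P1ex-region intron nucleotides was built with the intron in the knt kanamycin-resistance gene on pET-22b(+) and held in E. coli BL21(DE3). Cells were grown overnight at 37°C or 30°C on LB agar, with or without 25 μg/mL kanamycin, plus 100 μg/mL carbenicillin, 50 μM IPTG and 0.2% rhamnose, and pooled colonies were amplicon-sequenced on an Illumina HiSeq 2500. DiMSum fitness is the error-weighted combination of wild-type-normalised replicate fold changes, kanamycin versus none.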

Take ACGUAGCAAUAUUACGCAGC: the “self-splicing fitness (ln)” value reads like this: (30 °C) -3.26 ± 0.26; (37 °C) -2.71 ± 0.25.
Consider CGCAAGCAAUAUUACGCCCG, for which the “self-splicing fitness (ln)” value is -1.22 ± 0.21 (30 °C) and -1.93 ± 0.31 (37 °C).
The matching figures for AACCAGCAAUAUUACGUAAU: -1.45 ± 0.055 and -0.238 ± 0.069.
On to GAUGAGCAAUAUUACGAAUU, for which the “self-splicing fitness (ln)” value (30 °C) is -3.84 ± 0.47.
As to GAAGAGCAAUAUUACGCACC, the “self-splicing fitness (ln)” value (30 °C) was -0.341 ± 0.2 and the “self-splicing fitness (ln)” value (37 °C) was determined as 0.037 ± 0.22.
For GUUCAGCAAUAUUACGUGUG the same measures were -0.881 ± 0.066 and -0.806 ± 0.084.
For the sequence UAACAGCAAUAUUACGAAUC, the “self-splicing fitness (ln)” value (30 °C) is -2.67 ± 0.18 and the “self-splicing fitness (ln)” value (37 °C) was -2.66 ± 0.29.
For AUGCAGCAAUAUUACGUACC the same measures were -0.541 ± 0.084 and 0.409 ± 0.1.
For UCCUAGCAAUAUUACGUCCA the same measures were -3.15 ± 0.48 and -1.56 ± 0.34.
For GGAUAGCAAUAUUACGGUCG the same measures were -0.0227 ± 0.077 and 0.199 ± 0.094.
Regarding UGGUAGCAAUAUUACGGAGU, the “self-splicing fitness (ln)” value (30 °C) was -2.76 ± 0.27.
Regarding GUUUAGCAAUAUUACGGUGC, the “self-splicing fitness (ln)” value is, setting by setting: (30 °C) -1.02 ± 0.32; (37 °C) 0.233 ± 0.44.
For AGGAAGCAAUAUUACGUCAU the same measures were -3.32 ± 0.16 and -0.295 ± 0.12.
The matching figures for CGCAAGCAAUAUUACGAAGU: -4.42 ± 0.36 and -0.741 ± 0.15.
The matching figures for AAUUAGCAAUAUUACGCACC: -0.701 ± 0.15 and 0.362 ± 0.17.
Consider AAUAAGCAAUAUUACGGUAG, for which the “self-splicing fitness (ln)” value is, setting by setting: (30 °C) -3.77 ± 0.24; (37 °C) -1.95 ± 0.21.
Turning to UUUUAGCAAUAUUACGUCAC, the “self-splicing fitness (ln)” value (30 °C) is -2.38 ± 0.37.
In the case of AAACAGCAAUAUUACGACCG, the “self-splicing fitness (ln)” value was -1.6 ± 0.14 (30 °C) and 0.0387 ± 0.18 (37 °C).
With AACAAGCAAUAUUACGCCCA, the “self-splicing fitness (ln)” value reads like this: (30 °C) -0.0653 ± 0.094; (37 °C) -0.00342 ± 0.11.
On to UUGCAGCAAUAUUACGUACU, for which the “self-splicing fitness (ln)” value (30 °C) was -1.36 ± 0.12 and the “self-splicing fitness (ln)” value (37 °C) was -0.848 ± 0.12.
For CGUAAGCAAUAUUACGUAUA the same measures were -2.48 ± 0.26 and -2.21 ± 0.26.
For GUCUAGCAAUAUUACGGCAA the same measures were -1.61 ± 0.25 and 0.441 ± 0.17.
For UAACAGCAAUAUUACGUAUC the same measures were -3.56 ± 0.19 and -2.43 ± 0.15.
Turning to CCACAGCAAUAUUACGCCUC, the “self-splicing fitness (ln)” value was -2.9 ± 0.26 (30 °C) and -2.58 ± 0.35 (37 °C).
The matching figures for UAAAAGCAAUAUUACGAGUA: -1.26 ± 0.068 and -0.418 ± 0.082.
The matching figures for ACGAAGCAAUAUUACGACGU: -2.78 ± 0.17 and -1.88 ± 0.19.
Turning to UCGCAGCAAUAUUACGAAAC, where the note is “37 °C”, the “self-splicing fitness (ln)” value was -3.1 ± 0.35.
Regarding CGCGAGCAAUAUUACGCCAU, the “self-splicing fitness (ln)” value runs as follows: (30 °C) -3.53 ± 0.24; (37 °C) -3.92 ± 0.42.
The matching figures for UGUAAGCAAUAUUACGAGGG: -3.68 ± 0.27 and -2.14 ± 0.3.
Consider CUGCAGCAAUAUUACGCUAA, for which, under “30 °C”, the “self-splicing fitness (ln)” value is -3.28 ± 0.29.
On to CACAAGCAAUAUUACGACUG, for which the “self-splicing fitness (ln)” value (30 °C) is -0.95 ± 0.046 and the “self-splicing fitness (ln)” value (37 °C) came out at 0.337 ± 0.064.
For UGGCAGCAAUAUUACGUGAU the same measures were -1.46 ± 0.13 and -1.29 ± 0.17.
The matching figures for CCUCAGCAAUAUUACGAGGA: -2.54 ± 0.29 and -1.09 ± 0.14.
The matching figures for CAUCAGCAAUAUUACGGAGU: -2.65 ± 0.12 and -0.842 ± 0.11.
Take AUUAAGCAAUAUUACGAAAU: the “self-splicing fitness (ln)” value (30 °C) is -1.35 ± 0.13 and the “self-splicing fitness (ln)” value (37 °C) was -1.44 ± 0.18.
The matching figures for GGGAAGCAAUAUUACGCCCA: -0.527 ± 0.15 and -0.717 ± 0.21.
As for GACCAGCAAUAUUACGAGAC, the “self-splicing fitness (ln)” value is -0.715 ± 0.15 (30 °C) and -1.49 ± 0.18 (37 °C).
The matching figures for AUCUAGCAAUAUUACGUUCU: -1.52 ± 0.09 and -0.607 ± 0.11.
For GAUUAGCAAUAUUACGGAAG the same measures were -2.01 ± 0.24 and -2.18 ± 0.28.
